Consider five molecules from US20120164068A1 (AVIPEP, published 2012).

Numbering of substitutions follows the chain as printed.

Test [1] concerns the target T1, recombinant HER2 ectodomain (UniProt P04626 23-652, limits assumed).
T1 construct: extracellular domain
As to the kind of experiment: column shift assay: size exclusion chromatography of the Avibody with and without soluble antigen (recombinant HER2 ectodomain), A280.

The target in test [2] is T1, recombinant HER2 ectodomain. As to the kind of experiment: column shift assay: size exclusion chromatography of the PEG24 conjugate with and without soluble antigen (recombinant HER2 ectodomain), A280. (In general: Size exclusion chromatography separates by hydrodynamic size, large species first.)
Test [3] has the same target. As to the kind of experiment: column shift assay: size exclusion chromatography of the Avibody with and without soluble antigen (recombinant HER2 ectodomain), A280. This is another data set of the same source.

B1: AVP07-63 anti-HER2 diabody (Cys at Kabat L8 and L12, CDR3H cysteines removed, N-terminal serine; Myc+(His)6 tag) (other)
chain: SVQLVQSGAEVKKPGESLKISCKGSGYSFTSYWIAWVRQMPGKGLEYMGLIYPGDSDTKYSPSFQGQVTISVDKSVSTAYLQWSSLKPSDSAVYFCARHDVGYASSSNAAKWPEYFQHWGQGTLVTVSSGGGGSQSVLTQPCSSCAAPGQKVTISCSGSSSNIGNNYVSWYQQLPGTVPKLLIYGHTNRPAGVPDRFSGSKSGTSASLAISGFRSEDEADYYCAAWDDSLSGWVFGGGTKLTVLG
notes: Diabody
Regarding B1, the binding result in test [1] was “binds”.

B2: AVP07-63-PEG24 L8-L12 Diabody (other)
VH-linker-VL polypeptide of the diabody: B1 chain
modifications: engineered cysteines at Kabat L8 and L12 (VL FR1) conjugated with maleimide-PEG24-methoxy
notes: also called PEGylated AVP07-63
Turning to B2, the binding result in test [2] is on record as “binds”.

B3: AVP07-68 anti-HER2 diabody (Cys at Kabat L8 and L12, CDR3H cysteines removed, N-terminal serine; (His)6 tag) (other)
chain: B1 chain
notes: Diabody; It is identical to AVP07-63 except that it carries only the C-terminal (His)6 tag
For B3, the binding result in test [3] is “binds”.

B4: AVP07-17 anti-HER2 diabody (other)
chain: B1 chain with S1Q, A104C, A109C, C142P, S144V, C145S
notes: Diabody of two VH-Gly4Ser-VL chains from a human anti-HER2 mAb, with a lambda VL; also called AVP07-17 Avibody
As to B4, the binding result in test [1] is given as “binds”.

B5: AVP07-71 anti-HER2 scFv (Cys at Kabat L8 and L12, CDR3H cysteines removed, N-terminal serine) (scFv)
scFv: SVQLVQSGAEVKKPGESLKISCKGSGYSFTSYWIAWVRQMPGKGLEYMGLIYPGDSDTKYSPSFQGQVTISVDKSVSTAYLQWSSLKPSDSAVYFCARHDVGYASSSNAAKWPEYFQHWGQGTLVTVSSGGGGSGGGGSGGGGSQSVLTQPCSSCAAPGQKVTISCSGSSSNIGNNYVSWYQQLPGTVPKLLIYGHTNRPAGVPDRFSGSKSGTSASLAISGFRSEDEADYYCAAWDDSLSGWVFGGGTKLTVLG
notes: Monomeric scFv, unconjugated
As to B5, the binding result in test [1] was “binds”.
